Patent US20170051042A1
pIC50: −log10 of the molar value.

Columns and labels:
[1] = target: GPIIb/IIIa on mouse platelets (mouse) (UniProt Q9QUM0); experiment: mouse platelet depletion assay, unbound FVIII activity in supernatant; the filing calls this non-specific binding, not occurring through the peptide
[2] = target: GPIIb/IIIa on human platelets (human) (UniProt P08514); experiment: platelet depletion assay, 2.5 nM, plasma lacking FVIII and vWF (condition C); the filing calls this non-specific binding to platelets, not through GPIIb/IIIa
[3] = target: purified GPIIb-IIIa (Innovative Research), immobilized (UniProt P08514); experiment: solid phase competition of 3.5 nM biotinylated fibrinogen on coated GPIIb-IIIa, N=4

Sequence of GPIIb/IIIa on mouse platelets (mouse) (Q9QUM0 32-1033, chain 1 of 2): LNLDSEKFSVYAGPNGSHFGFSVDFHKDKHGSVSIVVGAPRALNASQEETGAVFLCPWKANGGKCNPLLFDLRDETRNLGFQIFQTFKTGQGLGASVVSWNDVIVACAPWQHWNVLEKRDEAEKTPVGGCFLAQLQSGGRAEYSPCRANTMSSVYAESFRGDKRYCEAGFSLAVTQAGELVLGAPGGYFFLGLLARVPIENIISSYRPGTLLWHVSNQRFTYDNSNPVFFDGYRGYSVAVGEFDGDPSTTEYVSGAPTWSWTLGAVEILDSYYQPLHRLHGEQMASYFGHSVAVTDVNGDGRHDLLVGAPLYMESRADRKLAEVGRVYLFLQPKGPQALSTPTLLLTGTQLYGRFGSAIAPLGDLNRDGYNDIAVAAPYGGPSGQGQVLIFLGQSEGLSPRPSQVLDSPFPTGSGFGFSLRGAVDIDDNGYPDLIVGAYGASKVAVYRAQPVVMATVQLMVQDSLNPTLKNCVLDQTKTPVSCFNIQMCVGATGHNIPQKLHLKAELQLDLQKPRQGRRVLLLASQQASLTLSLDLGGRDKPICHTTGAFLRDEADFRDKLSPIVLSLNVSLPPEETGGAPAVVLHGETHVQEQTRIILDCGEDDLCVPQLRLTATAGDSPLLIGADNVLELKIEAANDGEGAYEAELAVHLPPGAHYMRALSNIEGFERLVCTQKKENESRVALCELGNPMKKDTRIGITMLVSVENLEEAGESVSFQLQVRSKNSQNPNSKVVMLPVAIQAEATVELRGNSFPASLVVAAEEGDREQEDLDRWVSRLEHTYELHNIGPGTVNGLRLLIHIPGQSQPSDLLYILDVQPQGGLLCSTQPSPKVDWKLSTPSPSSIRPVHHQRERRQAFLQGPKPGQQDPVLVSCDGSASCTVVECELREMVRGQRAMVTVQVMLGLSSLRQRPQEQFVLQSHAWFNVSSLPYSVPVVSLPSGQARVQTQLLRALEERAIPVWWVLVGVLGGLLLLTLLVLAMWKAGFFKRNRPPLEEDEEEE
Sequence of GPIIb/IIIa on mouse platelets (mouse) (O54890 26-787, chain 2 of 2, further chain): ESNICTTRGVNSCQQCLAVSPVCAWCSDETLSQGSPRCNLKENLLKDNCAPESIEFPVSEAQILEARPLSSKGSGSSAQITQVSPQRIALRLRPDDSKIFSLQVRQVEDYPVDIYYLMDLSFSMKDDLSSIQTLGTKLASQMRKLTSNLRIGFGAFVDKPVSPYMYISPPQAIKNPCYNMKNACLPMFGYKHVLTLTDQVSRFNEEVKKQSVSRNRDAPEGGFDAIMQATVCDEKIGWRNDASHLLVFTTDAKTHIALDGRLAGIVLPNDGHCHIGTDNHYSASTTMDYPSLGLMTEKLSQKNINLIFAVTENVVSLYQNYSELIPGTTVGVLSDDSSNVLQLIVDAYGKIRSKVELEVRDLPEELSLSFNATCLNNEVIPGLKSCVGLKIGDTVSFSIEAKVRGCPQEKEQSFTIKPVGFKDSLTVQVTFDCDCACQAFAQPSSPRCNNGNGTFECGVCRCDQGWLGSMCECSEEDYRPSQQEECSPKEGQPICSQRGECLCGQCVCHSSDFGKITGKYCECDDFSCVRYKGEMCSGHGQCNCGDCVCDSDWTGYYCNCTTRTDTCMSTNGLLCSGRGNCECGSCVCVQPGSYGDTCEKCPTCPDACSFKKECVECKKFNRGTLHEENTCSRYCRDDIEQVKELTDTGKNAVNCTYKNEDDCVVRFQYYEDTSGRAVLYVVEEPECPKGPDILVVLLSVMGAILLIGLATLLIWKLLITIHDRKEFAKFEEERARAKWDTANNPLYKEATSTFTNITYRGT

| Substance | percent of activity bound [1] [%] | percent of FVIII activity bound [2] [%] | pIC50 [3] |
| --- | --- | --- | --- |
| unmodified recombinant FVIII (from UniProt P00451 20-2351) | 59 | 35 |  |
| integrilin (peptide) |  |  | 8.89 |
